Test results reported in US20200123264A1 (Regeneron, published 2020).
Each block holds one binder with its values, some of them ahead of it.

Assays:
[1] = target: T1, recombinant human LEPR extracellular domain expressed with a C-terminal myc-myc-hexahistidine tag (human, UniProt P48357 22-839); assay: SPR, mAb captured, 25 C
T1 construct: Monomeric construct; also called hLEPR.MMH; hLEPR-MMH
Experimental: (§1) Equilibrium dissociation constants (KD values) for antigen binding to purified anti-LEPR monoclonal antibodies of the invention were determined using a real-time surface plasmon resonance biosensor using a Biacore 4000 instrument. All binding studies were performed in running buffer containing 10 mM HEPES, 150 mM NaCl, 3 mM EDTA, and 0.05% v/v Surfactant Tween-20, pH 7.4 (HBS-ET running buffer) at 25° C. and 37° C. The Biacore sensor surface was first derivatized by amine coupling with a monoclonal mouse anti-human Fc antibody (GE, # BR-1008-39) to the capture anti-LEPR monoclonal antibodies. The LEPR reagents tested for binding to the anti-LEPR monoclonal antibodies included recombinant human LEPR extracellular domain expressed with a C-terminal myc-myc-hexahistidine tag (hLEPR.MMH; SEQ ID NO:90), recombinant cynomolgus monkey LEPR extracellular domain expressed with a C-terminal myc-myc-hexahistidine tag (mfLEPR.MMH; SEQ ID NO:93), recombinant mouse LEPR extracellular domain expressed with a C-terminal myc-myc-hexahistidine tag (mLEPR.MMH; SEQ ID NO:94), recombinant rat LEPR extracellular domain expressed with a C-terminal myc-myc-hexahistidine tag (rLEPR.MMH; SEQ ID NO:95), and recombinant human LEPR extracellular domain expressed with a C-terminal mouse IgG2a Fc tag (hLEPR.mFc; SEQ ID NO:91). LEPR constructs that include MMH tags are monomeric LEPR constructs, and LEPR constructs including an mFc tag are dimeric LEPR constructs. […] The dissociation of monoclonal antibody bound LEPR reagent was monitored for 10 minutes in HBS-ET running buffer. Kinetic association (10 and dissociation (10 rate constants were determined by fitting the real-time binding sensorgrams to a 1:1 binding model with mass transport limitation using Scrubber 2.0c curve-fitting software. Binding dissociation equilibrium constants (KD) and dissociative half-lives (t½) were calculated from the kinetic rate constants as: […]

[2] = target: T2, recombinant cynomolgus monkey LEPR extracellular domain expressed with a C-terminal myc-myc-hexahistidine tag (cynomolgus monkey, UniProt Q9MYL0 22-837 (rhesus entry)); assay: SPR, mAb captured, 25 C
T2 construct: Monomeric construct; also called mfLEPR.MMH; mfLEPR-MMH
Experimental: as §1

[3] = target: T3, recombinant human LEPR extracellular domain expressed with a C-terminal mouse IgG2a Fc tag (human); assay: SPR, mAb captured, 25 C
T3 construct: Dimeric construct; also called hLEPR.mFc; hLEPR-mFc
T3 chain: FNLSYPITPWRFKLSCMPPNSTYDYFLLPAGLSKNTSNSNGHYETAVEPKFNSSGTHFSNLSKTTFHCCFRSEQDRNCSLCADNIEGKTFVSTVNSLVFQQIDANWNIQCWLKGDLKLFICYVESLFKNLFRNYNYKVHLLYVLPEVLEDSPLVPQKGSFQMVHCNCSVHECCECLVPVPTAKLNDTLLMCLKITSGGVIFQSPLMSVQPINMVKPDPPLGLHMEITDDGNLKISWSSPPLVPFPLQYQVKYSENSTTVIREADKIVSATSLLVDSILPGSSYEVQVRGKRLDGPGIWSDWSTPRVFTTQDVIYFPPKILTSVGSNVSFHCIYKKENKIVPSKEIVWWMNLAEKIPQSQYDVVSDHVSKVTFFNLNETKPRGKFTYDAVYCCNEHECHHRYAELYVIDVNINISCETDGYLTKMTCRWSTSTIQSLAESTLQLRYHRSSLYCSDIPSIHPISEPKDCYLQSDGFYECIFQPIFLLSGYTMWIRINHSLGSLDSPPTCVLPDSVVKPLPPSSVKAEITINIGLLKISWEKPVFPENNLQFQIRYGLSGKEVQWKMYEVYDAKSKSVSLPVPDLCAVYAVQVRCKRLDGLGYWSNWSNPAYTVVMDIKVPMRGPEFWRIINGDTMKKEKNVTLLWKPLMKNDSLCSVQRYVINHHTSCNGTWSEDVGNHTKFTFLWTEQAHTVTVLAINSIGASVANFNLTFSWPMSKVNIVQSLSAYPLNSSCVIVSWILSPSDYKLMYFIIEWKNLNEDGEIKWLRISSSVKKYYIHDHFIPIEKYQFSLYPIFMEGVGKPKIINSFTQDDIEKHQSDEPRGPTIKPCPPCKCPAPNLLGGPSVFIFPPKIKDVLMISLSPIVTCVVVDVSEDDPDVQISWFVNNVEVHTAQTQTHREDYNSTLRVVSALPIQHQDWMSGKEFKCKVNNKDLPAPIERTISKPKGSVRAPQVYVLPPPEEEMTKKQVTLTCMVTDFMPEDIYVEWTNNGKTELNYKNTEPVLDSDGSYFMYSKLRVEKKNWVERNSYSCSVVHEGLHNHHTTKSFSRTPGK
Experimental: as §1

[4] = target: T4, recombinant mouse LEPR extracellular domain expressed with a C-terminal myc-myc-hexahistidine tag (mouse, UniProt P48356 22-839); assay: SPR, mAb captured, 25 C
T4 construct: Monomeric construct; also called mLEPR.MMH; mLEPR-MMH
T4 sequence (P48356 other isoform, or with tags, fused parts or gaps): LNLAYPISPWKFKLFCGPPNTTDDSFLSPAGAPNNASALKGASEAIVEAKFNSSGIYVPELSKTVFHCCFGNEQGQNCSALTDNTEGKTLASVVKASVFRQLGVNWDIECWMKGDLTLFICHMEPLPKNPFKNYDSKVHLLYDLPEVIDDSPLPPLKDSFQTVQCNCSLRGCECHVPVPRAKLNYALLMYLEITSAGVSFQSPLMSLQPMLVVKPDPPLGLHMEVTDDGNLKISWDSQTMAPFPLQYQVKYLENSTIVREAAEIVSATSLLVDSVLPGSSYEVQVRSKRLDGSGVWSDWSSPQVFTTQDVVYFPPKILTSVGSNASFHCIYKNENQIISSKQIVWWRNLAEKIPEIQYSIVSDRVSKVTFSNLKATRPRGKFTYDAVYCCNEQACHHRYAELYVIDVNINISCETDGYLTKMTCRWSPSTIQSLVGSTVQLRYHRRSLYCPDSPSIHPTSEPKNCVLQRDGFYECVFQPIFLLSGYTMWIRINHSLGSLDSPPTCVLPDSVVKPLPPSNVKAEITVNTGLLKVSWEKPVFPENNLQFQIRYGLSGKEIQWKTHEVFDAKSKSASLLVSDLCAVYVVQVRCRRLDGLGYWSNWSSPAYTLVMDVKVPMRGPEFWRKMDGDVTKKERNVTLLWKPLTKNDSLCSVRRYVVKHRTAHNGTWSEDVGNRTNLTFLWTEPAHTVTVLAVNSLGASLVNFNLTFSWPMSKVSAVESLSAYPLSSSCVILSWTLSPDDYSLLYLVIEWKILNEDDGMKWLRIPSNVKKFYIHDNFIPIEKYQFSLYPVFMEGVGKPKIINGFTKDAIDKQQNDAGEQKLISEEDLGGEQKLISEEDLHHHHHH
Experimental: as §1

[5] = target: T5, recombinant rat LEPR extracellular domain expressed with a C-terminal myc-myc-hexahistidine tag (rat, UniProt Q62959 22-839); assay: SPR, mAb captured, 25 C
T5 construct: Monomeric construct; also called rLEPR.MMH; rLEPR-MMH
T5 sequence (Q62959 other isoform, or with tags, fused parts or gaps): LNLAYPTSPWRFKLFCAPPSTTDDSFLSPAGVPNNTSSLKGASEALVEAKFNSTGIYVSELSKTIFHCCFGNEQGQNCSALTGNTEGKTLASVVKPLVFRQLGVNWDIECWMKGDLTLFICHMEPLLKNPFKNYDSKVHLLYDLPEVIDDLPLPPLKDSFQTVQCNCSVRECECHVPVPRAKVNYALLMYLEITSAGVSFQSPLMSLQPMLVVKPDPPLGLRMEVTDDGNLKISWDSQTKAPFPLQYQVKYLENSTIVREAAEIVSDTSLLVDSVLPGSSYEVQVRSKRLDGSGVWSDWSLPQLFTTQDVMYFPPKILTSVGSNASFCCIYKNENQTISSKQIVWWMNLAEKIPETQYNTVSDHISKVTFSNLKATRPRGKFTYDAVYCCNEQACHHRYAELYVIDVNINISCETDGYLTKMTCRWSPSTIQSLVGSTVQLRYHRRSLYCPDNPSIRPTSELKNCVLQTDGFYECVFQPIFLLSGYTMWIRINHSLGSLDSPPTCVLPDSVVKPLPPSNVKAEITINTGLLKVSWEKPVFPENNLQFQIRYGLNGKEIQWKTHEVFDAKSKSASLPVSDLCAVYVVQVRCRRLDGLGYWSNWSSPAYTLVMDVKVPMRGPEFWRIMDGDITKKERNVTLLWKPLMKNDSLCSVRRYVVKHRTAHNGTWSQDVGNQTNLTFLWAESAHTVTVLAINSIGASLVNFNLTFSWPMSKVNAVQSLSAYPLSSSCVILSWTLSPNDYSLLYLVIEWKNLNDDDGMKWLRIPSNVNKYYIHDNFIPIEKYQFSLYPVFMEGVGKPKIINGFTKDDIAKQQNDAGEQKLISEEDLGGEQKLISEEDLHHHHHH
Experimental: as §1

[6] = target: T1, recombinant human LEPR extracellular …; assay: SPR, mAb captured, 37 C
Experimental: as §1

[7] = target: T4, recombinant mouse LEPR extracellular …; assay: SPR, mAb captured, 37 C
Experimental: as §1

B1: H4H18440P2 (antibody, human IgG4, V domains shown)
VH: QVQLVESGGGMVKPGGSLRLSCAASGFTFSDYYMSWIRQAPGKGLEWISHISITGSTIYYADSVKGRFTISRDNAKNSLYLEMNRLRDEDTAVYYCTRDEPDIVLVRYGMDVWGQGTTVTVSS
VL: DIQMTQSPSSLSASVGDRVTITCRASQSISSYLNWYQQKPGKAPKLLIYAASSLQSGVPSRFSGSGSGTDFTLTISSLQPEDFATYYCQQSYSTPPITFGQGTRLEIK
notes: H4H prefix: human IgG4 Fc
100 nM hLEPR-MMH Bound (RU) [1]: 71 RU | Kd [1]: 11.8 nM | koff [1]: 0.000497 s⁻¹ | kon [1]: 42300 M⁻¹ s⁻¹ | t½ [1]: 23 min | 100 nM mfLEPR-MMH Bound (RU) [2]: 67 RU | Kd [2]: 54.1 nM | koff [2]: 0.00268 s⁻¹ | kon [2]: 49500 M⁻¹ s⁻¹ | t½ [2]: 4.3 min | 100 nM hLEPR-mFc Bound (RU) [3]: 140 RU | Kd [3]: 0.443 nM | koff [3]: 6.82e-05 s⁻¹ | kon [3]: 154000 M⁻¹ s⁻¹ | t½ [3]: 169 min | 100 nM mLEPR-MMH Bound (RU) [4]: -3 RU | 100 nM rLEPR-MMH Bound (RU) [5]: -2 RU | 100 nM hLEPR-MMH Bound (RU) [6]: 95 RU | Kd [6]: 27.3 nM | koff [6]: 0.00173 s⁻¹ | kon [6]: 63400 M⁻¹ s⁻¹ | t½ [6]: 7 min | 100 nM mLEPR-MMH Bound (RU) [7]: -1 RU

B2: H4H18462P2 (antibody, human IgG4, V domains shown)
VH: EVQLVESGGDLVQPGRSLRLSCAASGFTFSSFAMSWVRQAPGRGLEWVSSLSDSGDNTYYADSVKGRFTISRDNSKNTLYLQMNNLRAEDTAVYYCAKDLFSGWLFHGFDVWGQGTMVTVSS
VL: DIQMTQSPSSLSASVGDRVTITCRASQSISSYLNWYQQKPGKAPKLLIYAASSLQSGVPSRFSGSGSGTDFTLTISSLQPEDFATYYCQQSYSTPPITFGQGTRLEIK
notes: H4H prefix: human IgG4 Fc
100 nM hLEPR-MMH Bound (RU) [1]: 34 RU | Kd [1]: 113 nM | koff [1]: 0.00765 s⁻¹ | kon [1]: 67900 M⁻¹ s⁻¹ | t½ [1]: 1.5 min | 100 nM mfLEPR-MMH Bound (RU) [2]: 42 RU | Kd [2]: 179 nM | koff [2]: 0.0133 s⁻¹ | kon [2]: 74200 M⁻¹ s⁻¹ | t½ [2]: 0.9 min | 100 nM hLEPR-mFc Bound (RU) [3]: 68 RU | Kd [3]: 3.26 nM | koff [3]: 0.000296 s⁻¹ | kon [3]: 90800 M⁻¹ s⁻¹ | t½ [3]: 39 min | 100 nM mLEPR-MMH Bound (RU) [4]: 2 RU | binding result [4]: no binding (tested: 100 nM) | 100 nM rLEPR-MMH Bound (RU) [5]: 5 RU | Kd [5]: 336 nM | koff [5]: 0.0108 s⁻¹ | kon [5]: 32100 M⁻¹ s⁻¹ | t½ [5]: 1.1 min | 100 nM hLEPR-MMH Bound (RU) [6]: 31 RU | Kd [6]: 248 nM | koff [6]: 0.0114 s⁻¹ | kon [6]: 45800 M⁻¹ s⁻¹ | t½ [6]: 1 min

Stronger by Kd [1], values ahead:

100 nM hLEPR-MMH Bound (RU) [1]: 66 RU | Kd [1]: 5.11 nM | koff [1]: 0.000224 s⁻¹ | kon [1]: 43800 M⁻¹ s⁻¹ | t½ [1]: 52 min | 100 nM mfLEPR-MMH Bound (RU) [2]: 102 RU | Kd [2]: 4.16 nM | koff [2]: 0.000292 s⁻¹ | kon [2]: 70200 M⁻¹ s⁻¹ | t½ [2]: 40 min | 100 nM hLEPR-mFc Bound (RU) [3]: 74 RU | Kd [3]: 1.77 nM | koff [3]: 0.000114 s⁻¹ | kon [3]: 64500 M⁻¹ s⁻¹ | t½ [3]: 102 min | 100 nM mLEPR-MMH Bound (RU) [4]: 0 RU | 100 nM hLEPR-MMH Bound (RU) [6]: 99 RU | Kd [6]: 11.7 nM | koff [6]: 0.000812 s⁻¹ | kon [6]: 69500 M⁻¹ s⁻¹ | t½ [6]: 14 min | 100 nM mLEPR-MMH Bound (RU) [7]: -1 RU
B3: H4H17322P2 (antibody, human IgG4, V domains shown)
VH: QLQLQESGPGLVKPSETLSLTCTVSGASISSSRFYGGWIRQPPGKGLEWIGDIYYSGNTYYNPSLQSRVTISVDTSKNQFSLKLSSVTAADTAVYYCARHLMITFGGLIVEGFDIWGQGTMVTVSS
VL: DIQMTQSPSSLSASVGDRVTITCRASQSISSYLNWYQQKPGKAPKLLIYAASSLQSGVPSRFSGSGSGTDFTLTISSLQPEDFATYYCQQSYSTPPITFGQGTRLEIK
notes: H4H prefix: human IgG4 Fc

100 nM hLEPR-MMH Bound (RU) [1]: 60 RU | Kd [1]: 9.09 nM | koff [1]: 0.00113 s⁻¹ | kon [1]: 124000 M⁻¹ s⁻¹ | t½ [1]: 10 min | 100 nM mfLEPR-MMH Bound (RU) [2]: 15 RU | Kd [2]: 60.4 nM | koff [2]: 0.00231 s⁻¹ | kon [2]: 38200 M⁻¹ s⁻¹ | t½ [2]: 5 min | 100 nM hLEPR-mFc Bound (RU) [3]: 84 RU | Kd [3]: 0.891 nM | koff [3]: 0.000188 s⁻¹ | kon [3]: 211000 M⁻¹ s⁻¹ | t½ [3]: 61 min | 100 nM mLEPR-MMH Bound (RU) [4]: -1 RU | 100 nM rLEPR-MMH Bound (RU) [5]: -1 RU | 100 nM hLEPR-MMH Bound (RU) [6]: 68 RU | Kd [6]: 20.5 nM | koff [6]: 0.00315 s⁻¹ | kon [6]: 154000 M⁻¹ s⁻¹ | t½ [6]: 3.7 min | 100 nM mLEPR-MMH Bound (RU) [7]: 1 RU
B4: H4H18464P2 (antibody, human IgG4, V domains shown)
VH: QVQLVQSGPEVKKPGASVKVSCKGSGYTFSWYGISWIRQAPGHGLEWMGWISASSGNTRFAQKVQGRLTMTTDTSTSTAYMELRSLRSDDTAVYYCARTGTRPFDYWGQGTLVTVSS
VL: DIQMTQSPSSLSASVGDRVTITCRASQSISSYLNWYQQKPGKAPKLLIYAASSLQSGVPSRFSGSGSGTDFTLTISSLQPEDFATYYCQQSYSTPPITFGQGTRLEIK
notes: H4H prefix: human IgG4 Fc
